Data: publication PMC3870192

Tests used:
Test in all cases: purified protein
Format in all cases: biochemical, Plenodomus lingam
Settings in all cases: 1 mM [1-14C]DMAPP, 100 mM Tris-HCl pH 8.0, 2% glycerol, 30 °C
[1] = system: N[C@@H](Cc1c[nH]c2ccccc12)C(=O)O
[2] = system: COc1cccc2[nH]cc(C[C@H](N)C(=O)O)c12
[3] = system: Cc1cccc2c(C[C@H](N)C(=O)O)c[nH]c12

With “SirD (tyrosine O-prenyltransferase; dimethylallyltyrosine synthase) (Plenodomus lingam)” the Km [1] was 370 ± 60 µM, the kcat [1] was 0.095 ± 0.002 s⁻¹ and the kcat/Km [1] was 260 M⁻¹ s⁻¹. It also gave a Km [2] of 5100 ± 2000 µM, a kcat/Km [2] of 2.5 M⁻¹ s⁻¹ and a Km [3] of 2000 ± 400 µM. The kcat/Km [3] was 6.5 M⁻¹ s⁻¹.
